Results as given in patent US20110165066A1.

Tests used:
[1] = biological target: human IL-13 variant (R130Q) (human) (UniProt P35225); assay: SPR (Biacore)
[2] = biological target: human IL-13 wild type (human) (UniProt P35225); assay: SPR (Biacore)
[3] = biological target: human IL-13 wild type (human) (UniProt P35225); assay: ELISA-based receptor binding assay, IL-13 binding to IL-13Rα2/Fc
[4] = biological target: human IL-13 wild type (human) (UniProt P35225); assay: ELISA-based receptor binding assay, blocking biotin-IL-13 binding to IL-13Rα2/Fc
[5] = biological target: human IL-13 wild type (human) (UniProt P35225); assay: cell surface-based receptor binding assay, IL-13 binding to IL-13Rα2 on COS cells
[6] = biological target: human IL-13 wild type (human) (UniProt P35225); assay: cell surface-based receptor binding assay, blocking 125I-IL-13 binding to IL-13Rα2-transfected COS cells

human IL-13 wild type (human), sequence (P35225 other isoform, or with tags, fused parts or gaps limits assumed): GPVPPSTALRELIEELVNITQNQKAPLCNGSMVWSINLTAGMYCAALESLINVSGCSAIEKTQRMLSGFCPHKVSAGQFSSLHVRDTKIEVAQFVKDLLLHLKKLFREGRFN
human IL-13 variant (R130Q) (human), sequence (P35225 35-146 limits assumed, stated change not applied): as the sequence (P35225 other isoform, or with tags, fused parts or gaps limits assumed) above, with R110Q counted along it

Kd [1]: 0.79 nM
Kd [2]: 1.14 nM
% inhibition at 100 nM [3]: 60%
IC50 [4]: 19 nM
% inhibition at 100 nM [5]: 70%
IC50 [6]: 17.6 nM
B1: MJ2-7 (antibody, from another filing, V domains shown)
VH: EVQLQQSGAELVKPGASVKLSCTGSGFNIKDTYIHWVKQRPEQGLEWIGRIDPANDNIKYDPKFQGKATITADTSSNTAYLQLNSLTSEDTAVYYCARSEENWYDFFDYWGQGTTLTVSS
VL: DVLMTQTPLSLPVSLGDQASISCRSSQSIVHSNGNTYLEWYLQKPGQSPKLLIYKVSNRFSGVPDRFSGSGSGTDFTLKISRVEAEDLGVYYCFQGSHIPYTFGGGTKLEIK
